Experimental data: patent US11058748B2, “Stable liquid formulations of glucagon-like peptide 1 or analogues thereof” (Rose Pharma LLC, priority 2019, dated 2021)

What was measured:
[1] = in solution; cited from earlier work
[2] = test system: constipation predominant IBS (IBS-C); conditions: cited from earlier work
[3] = High performance size-exclusion chromatography (HP-SEC): monomer, HMWS, LMWS; assay type: physicochemical; conditions: method test
Description: The ability of the HP-SEC method to detect changes in the monomer, HMWS and LMWS content was tested with stressed samples. […] Multiple freeze-thaw cycles had no influence on the SEC profile.

[4] = test system: irritable bowel syndrome (IBS); conditions: clinical trials; cited from earlier work

With “H-HVEGTFTSDVSSYLEGQAAKEFIAWLVKGRG-OH [ROSE-010]” as the substance, how does the noncovalent aggregates [1] read?
Its noncovalent aggregates is “forms noncovalent aggregates in solution”.

And the colonic transit ([2]; at 48 h with 30 and 100 μg)?
The colonic transit was “accelerated colonic transit”.

What about the “gastric emptying of solids” value [2] of the same substance?
Its value is “delayed gastric emptying of solids”.

And the “overall signal intensity (HP-SEC)” value ([3]; mechanical stress)?
The value was “substantial loss”.

And the SEC profile ([3]; multiple freeze-thaw cycles)?
The SEC profile was “no influence”.

What about the HMWS content ([3]; one week storage at 40° C.) of the same substance?
Its HMWS content is “slight increase”.

What about the “acute exacerbations of irritable bowel syndrome (IBS)” value [4] of the same substance?
The value was “reduce acute exacerbations of irritable bowel syndrome (IBS)”.
